What all share (details): glycan gained; control: wild type
A short description of data set [1]: Uptake index: recipient lysate activity / input medium activity.
Data set [2] is described as follows: Anti-V5 blot of Ni-NTA purified C-terminal fragment, COS-1.
Data set [3] can be described thus: GALC blot and activity in H4 conditioned medium.
A short description of data set [4]: HNG colorimetric assay, stable H4 lysates.

B1: galactocerebrosidase (GALC): D528N (protein)
parent chain: MLGKSHGRATHGPLPLADLGIHLPCVKVLHQVTPEEKPAATSRLLVNYPEPYRSQILDYLFKPNFGASLHILKVEIGGDGQTTDGTEPSHMHYALDENYFRGYEWWLMKEAKKRNPNITLIGLPWSFPGWLGKGFDWPYVNLQLTAYYVVTWIVGAKRYHDLDIDYIGIWNERSYNANYIKILRKMLNYQGLQRVKIIASDNLWESISASMLLDAELFKVVDVIGAHYPGTHSAKDAKLTGKKLWSSEDFSTLNSDMGAGCWGRILNQNYINGYMTSTIAWNLVASYYEQLPYGRCGLMTAQEPWSGHYVVESPVWVSAHTTQFTQPGWYYLKTVGHLEKGGSYVALTDGLGNLTIIIETMSHKHSKCIRPFLPYFNVSQQFATFVLKGSFSEIPELQVWYTKLGKTSERFLFKQLDSLWLLDSDGSFTLSLHEDELFTLTTLTTGRKGSYPLPPKSQPFPSTYKDDFNVDYPFFSEAPNFADQTGVFEYFTNIEDPGEHHFTLRQVLNQRPITWAADASNTISIIGDYNWTNLTIKCDVYIETPDTGGVFIAGRVNKGGILIRSARGIFFWIFANGSYRVTGDLAGWIIYALGRVEVTAKKWYTLTLTIKGHFTSGMLNDKSLWTDIPVNFPKNGWAAIGTHSFEFAQFDNFLVEATR
For B1, in data set [1], the “other: cellular uptake, other: uptake index” value is listed as “decreases”. For the same protein, in data set [2], the “other: proteolytic processing” value was “no change”. Moreover, the expression_or_secretion entry in data set [3] was “decreases”. Also, in data set [4], the “enzymatic_activity, percent_of_wt” value is recorded as “decreases”.

(Values after article PMC3278277.)
